Laboratory results: the supplement of paper PMC12764529
± gives the half width of the 95% confidence interval.

Assays:
[1] = folding stability dG unfold (combined trypsin and chymotrypsin); higher = more stable
Outline: (§1)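 Designed mini-proteins with no cysteine and under 80 residues were kept only if AlphaFold2 dimer inter-PAE was above 15. In a PA-tagged cDNA display construct, they were digested with trypsin and chymotrypsin and then sequenced. K50 was inferred by Bayesian fitting of counts, and unfolding free energy was derived per protease or combined against a sequence-predicted unfolded-state K50 and a shared folded-state K50.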

[2] = folding stability dG unfold from chymotrypsin proteolysis; higher = more stable
Outline: as §1

[3] = folding stability dG unfold from trypsin proteolysis; higher = more stable
Outline: as §1

| Sequence | folding stability dG unfold [1] [kcal/mol] | folding stability dG unfold [2] [kcal/mol] | folding stability dG unfold [3] [kcal/mol] |
| --- | --- | --- | --- |
| SAGGSAGGSAKSVVRIKIYNKKTGKVLEIEIPENMTEEEIKKLAEELAKKNNVEIVEVEKVPSAGGSAGGSA [r18_322_TrROS_Hall] | 2.63 ± 0.12 | 2.99 ± 0.051 | 1.83 ± 0.051 |
| SAGGKTLYVVRITRRVRVDGKLYEVTLTLVAESEEEAEEALRKLAEELEALFPDEIRIEVEKVELPPSAGGS [r16_475_TrROS_Hall] | 5.5 ± 0.25 | 5.7 ± 0.24 | 3.93 ± 0.13 |
| SAGGSAGGSAGMTVTVPPDLDPESAIAALKAAAPASVKTVTLTIVDGEGPTTTVTVDITGSAGGSAGGSAGG [r17_215_JUSTAS] | 0.00145 ± 0.096 | 0.209 ± 0.11 | -0.402 ± 0.18 |
| SMYYLVTITVTIRKDGKPVSVTPIYLAVPPEKAEEVAAEIKKSHPDLEVTITMEVTEVSEDDEEVKELLKSA [r9_782_JUSTAS] | 2.79 ± 0.19 | 3.36 ± 0.085 | 1.92 ± 0.13 |
| SAGGSAKMKKVKITLYAKVKSLEEAKEIAEEIKKSFPSIEKVEVKTEPLEDGSLLVKVDAIFYVPESAGGSA [r15_726_TrMRF] | 3.7 ± 0.16 | 4.17 ± 0.11 | 2.66 ± 0.072 |
| SAGGSAGGKNWRTIPFMIWIPPGAPPIEFEIPLPDGWKVEIEISVVRNPDGWYFIMFSITVQPDSAGGSAGG [r6_510_TrROS] | 3.81 ± 0.22 | 3.85 ± 0.17 | 3.12 ± 0.28 |
| SATFRLPNGKTISIMAPLPPGEMTPDQVISMARMIVRNIFPPGKKVEVKIEVEQYPNGMVHVKIPIKAESAG [r14_389_TrROS] | 0.406 ± 0.4 | 0.312 ± 0.28 | 0.0799 ± 0.31 |
| WKIVEITDIEPDPDGWLEIKITIEPPEPGDPIKIMIFHPNQFHEFEIDPESPEIEIRIPPGFDNLHIFIYVS [r1_428_TrROS] | 3.9 ± 0.57 | 4.42 ± 0.2 | 2.82 ± 0.24 |
| SAGGSLEDFELAGTFPATSEGETLLVTVWKSKEPGKYVVSAYYPSTGIPEVKVVNPEDIEEFFKNLYSAGGS [r8_469_TrMRF] | 1.78 ± 0.054 | 1.95 ± 0.051 | 1.48 ± 0.02 |
| MKEYLIKIKITITDPNGKKREIEITVLVPAEELTEEQLKELLEKAKELAEKLKEKGYEVKVEVEIIPLEELS [r1_221_TrROS_Hall] | 4.25 ± 0.27 | 4.23 ± 0.21 | 3.83 ± 0.27 |
| SAGSAEEIAKKLAEELRKAGYEVKVKVVEVEKVGDGKVVVRVEIEVTYYDKNGKPVKKERFELTIVLPSAGG [r19_418_TrROS_Hall] | 4.25 ± 0.19 | 4.69 ± 0.27 | 2.99 ± 0.12 |
| SAGEKFEPVEEKELTLKITLKDKDGNEKEVEIKVKVEVVKNPDGTLTVRAEITFEDGTKIELELEIKLPSAG [r5_57_TrROS_Hall] | 3.11 ± 0.33 | 3.19 ± 0.23 | 3.27 ± 0.16 |
| SAGGSAGGSAGDGINFTLDIPIEGDFELRDVYLTPLEPENRRAFFLLRYKDGPVLLTLPLSAGGSAGGSAGG [r11_1013_TrMRF] | 1.09 ± 0.1 | 0.922 ± 0.18 | 1.21 ± 0.12 |
| SAGGSAGGSMTLKVTLPNGKVIELPLPEELENIPAETIAKLLGEENVRLELYSPDGVPYDFGASAGGSAGGS [r12_411_TrMRF] | 1.03 ± 0.099 | 0.726 ± 0.09 | 1.18 ± 0.029 |
| SMVVIEVEPNPETNSLTAKVYLPKDGKKVVEIERSPDGTVKVTVYYKDGSKEEFTFPEDIPIEEAIKKAISA [r9_346_TrMRF] | 1.15 ± 0.095 | 1.1 ± 0.13 | 1.16 ± 0.037 |
| SAGKKLIIRVEVYRREKNENGEIKKVTETLEVPPGATIEELVKALAPPGYTIRIEIIENGKIIETIEIKSAG [r5_278_TrROS_Hall] | 3.23 ± 0.31 | 3.59 ± 0.086 | 2.14 ± 0.16 |
| SAGGSAGGSMTLIGTTTLPSPDGSLVTVDTYKVPGSDELVAKVTTLNGTTWTTETRPLSEFLKSAGGSAGGS [r12_1063_JUSTAS] | 0.646 ± 0.1 | 0.913 ± 0.14 | 0.188 ± 0.081 |
| SSKIEASATIEGDVITVTLVADSLSDLLAAIKELAEKLGVSFEILSISYKRLPNGKIIATVTARVKPEDLSA [r9_102_TrMRF] | 4.277 ± 0.039 | 4.65 ± 0.048 | 3.24 ± 0.056 |
| SAGGSAGGSAGKYYIIKYPGKVEIIPESEVEKIIEANPNVEIEEFESKEEALKALEKALSSAGGSAGGSAGG [r11_60_TrMRF] | 4.22 ± 0.09 | 4.24 ± 0.083 | 3.95 ± 0.21 |
| SAGGSAGGSMNVPPGESVTVTVPPGTGLEWLRAQLPSSRTWDFATFVSENPSPPVTTYEITVGSAGGSAGGS [r12_469_JUSTAS] | 1.76 ± 0.11 | 2 ± 0.077 | 1.16 ± 0.078 |
| SAGGSAGGSAGSMFMIMIEYDPPGYIKVSINRYKMGPDGDFEPVEPETHEIPIPPGQPFFSAGGSAGGSAGG [r11_440_TrROS] | 2.3 ± 0.17 | 2.36 ± 0.13 | 1.91 ± 0.14 |

| Sequence | folding stability dG unfold [1] [kcal/mol] | folding stability dG unfold [2] [kcal/mol] | folding stability dG unfold [3] [kcal/mol] |
| --- | --- | --- | --- |
| SMSVEISVPPTNPGASPEEIAAALAAKGRPVEVVSVSEDPSTGTRTVTIAVRAPDGTLEETVVVNAPVGVSA [r9_879_JUSTAS] | 0.0853 ± 0.12 | -0.772 ± 0.33 | 0.495 ± 0.057 |
| SAMEKPLETLEIPIPGLPVTVKITIYPSHIEKAKESGIPEITVEALLTIELPDGSKVEKKIPLTVKIPGSAG [r14_100_JUSTAS] | 1.61 ± 0.11 | 1.67 ± 0.042 | 1.58 ± 0.043 |
| SAGGKTITIKVKLENGEEKTIEVKVDEVKIEKKNGKLVITFKDGKKITIPLDKIEDMSEDEIKKLLEKSAGG [r13_925_TrROS_Hall] | 2.97 ± 0.2 | 3.03 ± 0.18 | 2.72 ± 0.15 |
| SAGMKKTITIKIEVPEKPIRIIVEKNGKKEEITIKPGETVTIEIELEPGETLRIRIVNEDGEEFEFEIKSAG [r5_187_TrROS_Hall] | 3.68 ± 0.28 | 3.45 ± 0.12 | 4.15 ± 0.3 |
| SAGGMITLTLPIPAEFLEKHGLDEAKKIVLEKAKEELKKLGLSEKYPIKKIEITPEPESLTATIVILSAGGS [r16_368_JUSTAS] | 2 ± 0.04 | 1.95 ± 0.026 | 2 ± 0.036 |
| SAGGSAGGSAGGKKIEIPGFEITKVEPLENDSVIAEGKFKNGKKYRILFLPNKVYINDESAGGSAGGSAGGS [r10_312_TrMRF] | 0.357 ± 0.16 | 0.44 ± 0.2 | 0.335 ± 0.16 |
| SAKKIKIKEITITVEKNKDGSYTITITVDGKKIAELTFKTPEEAEKAAEELAKELAKKLNVDKIEIKPTSAG [r14_791_TrROS_Hall] | 2.09 ± 0.22 | 2.69 ± 0.25 | 1.5 ± 0.18 |
| SAGLKVEIFPMDGTEQTIPIPAEDADPLVDEFQDNGFKVDNVEVDPDGEVWIPIKFPNGRPWMIEIDWESAG [r5_645_TrROS] | 0.0616 ± 0.29 | -0.0946 ± 0.31 | -0.0958 ± 0.093 |
| SAGGSAGGSAMTPEELLKAAEELAKKLNLKVEIEVKKNENGELTITVKVYKNGKLVKEFEIKSAGGSAGGSA [r18_369_TrROS_Hall] | 4.82 ± 0.16 | 4.9 ± 0.11 | 3.06 ± 0.089 |
| SAGGSAGGSAGMLWIHDPESGTLVMLHPKPDGEVNVQVWQFDPDNGKPEIKTVPADNIEASAGGSAGGSAGG [r11_285_TrROS] | 0.924 ± 0.091 | 1.22 ± 0.18 | 0.376 ± 0.046 |
| STRTLTVVVEAPTLEEALAAAKALAPPGWKVTVTVERREVVDPETGETRTVLVVTVTIEPAPPPPPAEEKSA [r9_962_TrROS_Hall] | 2.86 ± 0.091 | 3.16 ± 0.083 | 2.11 ± 0.028 |
| SAGGSAGGSAGGETITIKNKKTNETVTIEKDKDGNYTITYPDGSKKTYKKGEKISKSALSAGGSAGGSAGGS [r10_98_TrROS_Hall] | 0.9 ± 0.18 | 1.18 ± 0.14 | 0.162 ± 0.13 |
| SAGGSAGGEKGYKLVEITIPVTVYHGNKPYTIPIPIKVKSPEEVEKLKKFIENTSYDPTSGKFSSAGGSAGG [r6_197_TrMRF] | 1.02 ± 0.13 | 1.28 ± 0.24 | 0.607 ± 0.1 |
| SAGPRPIEIYVDPDGMINIRFPNNGREINIPIPKGAEIEIIELPDDYIVIEIKFGGETREFWIPPEDISAGG [r19_309_TrROS] | 3.46 ± 0.076 | 3.08 ± 0.064 | 4.04 ± 0.13 |
| SVPPNAPPGMKPKRVEIFIFIPPELYDKDGKISPEQLKKAKGMAKMIKLRLREQYPGYGIDDVKVHIMPGSA [r9_943_TrROS] | 3.14 ± 0.097 | 3.303 ± 0.022 | 2.76 ± 0.052 |
| SAGGSAGGSAGDVPPSETVTITVSSEAEKEAIKKEHPEVNLTFTEAEPPVAFDPTSDVTASAGGSAGGSAGG [r17_126_JUSTAS] | 1.21 ± 0.17 | 1.27 ± 0.15 | 0.842 ± 0.096 |
| SAGMEPTTITVDVTIPPEVFARLSEEELKEKVLAELGIPESLPVEVEISRKEVKLDGKTVYVVPMTIVGSAG [r14_334_JUSTAS] | 0.407 ± 0.089 | 0.652 ± 0.11 | 0.117 ± 0.085 |
| SAGGSAGGMKEGEEFEIELPDKYKVKIRVKDNIIEVEFPPGLRVRAEILENGEVKVYLPPELKPSAGGSAGG [r6_970_TrMRF] | 1.7 ± 0.21 | 1.42 ± 0.048 | 2.04 ± 0.087 |
| SAGGSAMTKEEAKEYAEKRVKEEHPGWTVLGVEVTELPGKEVLTKVTVKPPENPDKTLEFEFKFPLSAGGSA [r15_627_JUSTAS] | 2.54 ± 0.072 | 2.61 ± 0.035 | 2.34 ± 0.1 |
| SPTIKASYDPETGVLTVYVKLRDPETGEPIPAEAVAAKIKELFPDAEILDIEPNPDGYVKITVKVAPDAVSA [r9_87_TrMRF] | 3.72 ± 0.071 | 3.79 ± 0.086 | 3.48 ± 0.11 |
| SAGGSAMSKDVLFENGARITKFFPGKNYVIIETSPENPELLKELGITVIKEGPNRIIVPAKDFLDESAGGSA [r15_984_TrMRF] | -0.864 ± 0.8 | -0.821 ± 0.78 | -1.28 ± 0.74 |
